# Measurements as given in US9597407B2, “Targeted antimicrobial moieties” (C3 Jian, Inc., priority 2009, dated 2017).
# Entries after “also recorded” stand apart in the source; their conditions may differ. Bridge positions count the residues as written; N and C are the ends. Square brackets hold non-standard residues; d marks the D form. Ends that are not written are not given here. Peptide text beside a SMILES is read from it. I, II: the chains in the order shown. Aoc = NCCCCCCCC(=O)O
# B1: PF-763 (peptide)
# chain 1: GIWMARNYFHRSSIRKVYVESDKEYERVHPMQKIQYEGNYKSQ
# chain 2: GIWMARNYFHRSSIRKVYVESDKEYERVHPMQKIQYEGNYKSQ
# modifications: Peptide with targeting and/or antimicrobial activity
# B2: PF-749 (peptide)
# chain 1: GVNKWWEEHNKAKLWKNVKGKFLEGEGEEEDDE
# chain 2: GVNKWWEEHNKAKLWKNVKGKFLEGEGEEEDDE
# modifications: Peptide with targeting and/or antimicrobial activity
# B3: PF-761 (peptide)
# chain 1: SKFELVNYASGCSCGADCKCASETECKCASKK
# chain 2: SKFELVNYASGCSCGADCKCASETECKCASKK
# modifications: Peptide with targeting and/or antimicrobial activity
# Columns and labels:
# [1] = system: S. mutans; test: Microbial population shift assay, mixed planktonic culture; type: cell-based, Streptococcus mutans; conditions: 10 μM peptide, 24 h, detection limit 200 cfu/mL
# Protocol: (§1) Peptide (10 μM) or mock-treatment (1×PBS) was then added and samples were incubated at 37° C. for 24 h under anaerobic conditions (80% N2, 15% CO2, 5% H2). […] Plates were then incubated 37° C. under aerobic conditions (TH plates were incubated anaerobically) and colonies counted after 24 h to determine survivors. […] Gram stains and direct microscopic observation (from select isolated colonies) were undertaken to confirm species identity (data not shown). The detection limit of the assay was 200 cfu/mL.
# (§2) We hypothesized that potential MH-STAMP dual-functionality could affect a particular set of bacteria within a mixed population, thereby promoting the outgrowth of non-targeted organisms and “shifting” the constituent makeup. To examine this possibility, defined mixed populations of planktonic cells were treated continuously and the make-up of the community examined after 24 h.
# [2] = system: E. coli; test: as above; type: cell-based, Escherichia coli; conditions: 10 μM peptide, 24 h, detection limit 200 cfu/mL
# Protocol: as §1, §2
# [3] = system: S. epidermidis; test: Post-antibiotic effect assay, monoculture growth after 10 min treatment; type: cell-based, Staphylococcus epidermidis; conditions: peptide 10 min, then fresh medium
# Protocol: (§3) The activity and selectivity of MH-STAMPs after a 10 min incubation was determined by growth retardation experiments against targeted and untargeted bacteria in monocultures, as described previously (Id.). Cells from overnight cultures were diluted to ˜5×10^6 cfu/mL in MH (or TH with 1% sucrose for S. mutans), normalized by OD600 0.05-0.1 and seeded to 96-well plates. Cultures were then grown under the appropriate conditions for 2 h (3 h for S. mutans) prior to the addition of peptides for 10 min. Plates were then centrifuged at 3000×g for 5 min, the supernatants discarded, fresh medium returned (MH or TH without sucrose for S. mutans), and incubation resumed. Bacterial growth after treatment was then monitored over time by OD600.
# (§4) MH-STAMP antimicrobial kinetics was ascertained utilizing a variation of the classical post-antibiotic effect assay, which measures the ability of an agent to affect an organism's growth after a short exposure period. Monocultures of MH-STAMP-targeted and untargeted organisms were exposed to M8(KH)-20, M8(BL)-20, BL(KH)-20, or unmodified BD2.20, then allowed to recover. […] Furthermore, replacement of the targeting region with a non-binding peptide abolishes specific activity.
# [4] = system: S. epidermidis; test: Microbial population shift assay, mixed planktonic culture; type: cell-based, Staphylococcus epidermidis; conditions: 10 μM peptide, 24 h, detection limit 200 cfu/mL
# Protocol: as §1, §2
# [5] = system: E. coli; test: Post-antibiotic effect assay, monoculture growth after 10 min treatment; type: cell-based, Escherichia coli; conditions: peptide 10 min, then fresh medium
# Protocol: as §3, §4
# [6] = system: P. aeruginosa; test: as above; type: cell-based, Pseudomonas aeruginosa; conditions: peptide 10 min, then fresh medium
# Protocol: as §3, §4
# [7] = system: S. mutans; test: as above; type: cell-based, Streptococcus mutans; conditions: peptide 10 min, then fresh medium
# Protocol: as §3, §4
# [8] = system: S. aureus; test: as above; type: cell-based, Staphylococcus aureus; conditions: peptide 10 min, then fresh medium
# Protocol: as §3, §4
# [9] = system: P. aeruginosa; test: Microbial population shift assay, mixed planktonic culture; type: cell-based, Pseudomonas aeruginosa; conditions: 10 μM peptide, 24 h, detection limit 200 cfu/mL
# Protocol: as §1, §2
# [10] = system: S. mutans; test: STAMP activity in formulations (buffer/salt dependence); type: cell-based, Streptococcus mutans
# From the text: During the course of evaluating STAMPs, antimicrobial peptides (AMPs), and binding peptides for desired activity, it was discovered that certain formulations can attenuate or promote peptide activity, as compared to activity levels in a default buffer system (1×PBS). In some cases, 1×PBS may provide the best level of activity. Below are a number of formulations that alter, or may alter, peptide or STAMP activity. For complex buffer systems, assume the base solvent is water unless otherwise stated.
# It was a surprising discovery that certain anti-S. mutans STAMPs required a salt in the formulation (e.g., PBS) for optimum activity. […] Suitable PBS formulations ranged from 0.5×PBS to about 2.5×PBS with an activity optimum at about 1×PBS. Similar results are believed to obtain for other anti-S. mutans STAMPS as well as a number of other STAMPs. In certain embodiments STAMP stability in solution was improved by inclusion of fluoride in mouthrinse.
# [11] = system: bacteria; test: Binding of targeting peptides to microorganisms (Table 3); conditions: peptide binding in aqueous buffers that varied depending on peptide solubility; preferably 1x PBS
# [12] = system: microorganisms; test: Morphology, biofilm and growth disruption by peptides (Table 5); type: cell-based; design: key: A: Peptide aggregates; B: Less hyphal formation; Clumps; Diffuse clumps and small polyps; F: Diffuse growth; H: Thin; I: Growth inhibition; Microcolony formation; Rippled; Small polyps; Thick; W: Halo formation on top, microlonies on bottom
# From the text: In certain embodiments peptides that induce alterations in phenotype or other biological activities can also be used as antimicrobial effector moieties.
# [13] = system: microorganisms; test: Peptide activities: binding, antimicrobial, growth or phenotype altering (Table 8)
# From the text: In certain embodiments, peptides described herein can have multiple activities. Thus for example, a peptide can have both binding/targeting activity and antimicrobial activity. Such peptides can be used, e.g., in a chimeric construct, for any or all of these properties. Thus, for example, a peptide designated “B” in Table 8 can be used as a targeting peptide. If it is also designated G or M it can also be used for antimicrobial activity.
Molecule,surviving S. mutans cfu/mL [1],surviving E. coli cfu/mL [2],surviving S. epidermidis cfu/mL [4],S. mutans growth (OD600) after treatment [7],surviving P. aeruginosa cfu/mL [9],Target(s) (microorganism bound by the targeting peptide) [11],"Organism, effect (morphology, biofilm and growth disruption) ([12]; M. luteus)","Organism, effect (morphology, biofilm and growth disruption) ([12]; MRSA)","Organism, effect (morphology, biofilm and growth disruption) ([12]; S. epidermidis)","Organism, effect (morphology, biofilm and growth disruption) ([12]; S. pneumoniae)",Activities [13],other results
CC[C@H](C)[C@H](NC(=O)[C@@H](N)Cc1ccccc1)C(=O)N[C@@H](CCCNC(=N)N)C(=O)N[C@@H](CCCCN)C(=O)N[C@@H](Cc1ccccc1)C(=O)N[C@@H](CC(C)C)C(=O)N[C@@H](CCCCN)C(=O)N[C@@H](CCCCN)C(=O)N[C@@H](Cc1c[nH]c2ccccc12)C(=O)N[C@@H](CC(C)C)C(=O)N[C@@H](CC(C)C)C(N)=O [BD2.20] (H-FIRKFLKKWLL-NH2; N-terminus assumed),significant loss of recoverable cfu/mL,significant loss of recoverable cfu/mL,significant loss of recoverable cfu/mL,robust antimicrobial activity,significant loss of recoverable cfu/mL,,,,,,,S. epidermidis growth (OD600) after treatment [3]: inhibited; E. coli growth (OD600) after treatment [5]: inhibited; P. aeruginosa growth (OD600) after treatment [6]: robust antimicrobial activity; S. aureus growth (OD600) after treatment [8]: inhibited
CC[C@H](C)[C@H](NC(=O)[C@H](Cc1ccccc1)NC(=O)CCCCCCCNC(=O)[C@H](CCCCNC(=O)CNC(=O)CNC(=O)CNC(=O)[C@H](Cc1c[nH]cn1)NC(=O)[C@H](CCCCN)NC(=O)[C@H](CCCNC(=N)N)NC(=O)[C@H](Cc1c[nH]cn1)NC(=O)[C@H](CCCCN)NC(=O)[C@H](CCCNC(=N)N)NC(=O)[C@H](Cc1c[nH]cn1)NC(=O)[C@H](CCCCN)NC(=O)[C@H](CCCNC(=N)N)NC(=O)[C@H](Cc1c[nH]cn1)NC(=O)[C@H](CCCCN)NC(=O)[C@@H](N)CCCCN)NC(=O)CNC(=O)CNC(=O)CNC(=O)[C@H](C)NC(=O)[C@H](CCC(=O)O)NC(=O)[C@H](CC(N)=O)NC(=O)[C@H](C)NC(=O)[C@H](C)NC(=O)[C@H](CC(=O)O)NC(C)=O)C(=O)N[C@@H](CCCNC(=N)N)C(=O)N[C@@H](CCCCN)C(=O)N[C@@H](Cc1ccccc1)C(=O)N[C@@H](CC(C)C)C(=O)N[C@@H](CCCCN)C(=O)N[C@@H](CCCCN)C(=O)N[C@@H](Cc1c[nH]c2ccccc12)C(=O)N[C@@H](CC(C)C)C(=O)N[C@@H](CC(C)C)C(N)=O [BL(KH)-20] (I: Ac-DAANEAGGGK[Aoc]FIRKFLKKWLL-NH2 / II: H-KKHRKHRKHRKHGGG; amide I:10-II:C),higher than input cfu/mL,unchanged numbers,unchanged numbers,not altered,not observed,,,,,,,
"TFFRLFNRSFTQALGKGGGKNLRIIRKGIHIIKKY* (TFFRLFNRSFTQALGKGGGKNLRIIRKGIHIIKKY-NH2) [Peptide C16G2, anti-S. mutans STAMP]",,,,,,,,,,,,activity optimum (PBS strength) ([10]; PBS formulations 0.5×PBS to about 2.5×PBS): about 1 ×PBS; activity ([10]; water-based salt-free buffers and nanoemulsions): substantially inactive
B1,,,,,,S. epidermidis and M. luteus and E. coli and C. albicans and MRSA and S. pneumoniae and E. faecalis,M. luteus (C),MRSA (D),S. epidermidis (M),S. pneumoniae (C),G B,
B2,,,,,,S. epidermidis; also recorded: M. luteus; also recorded: E. coli; also recorded: P. aeruginosa; also recorded: C. albicans; also recorded: S. pneumoniae; also recorded: C. jeikeium,,,,S. pneumoniae (H),G B,
B3,,,,,,S. epidermidis and M. luteus and P. mirabilis and P. aeruginosa and C. albicans and MRSA and S. pneumoniae and E. faecalis,M. luteus (C),MRSA (D),S. epidermidis (C),S. pneumoniae (C),G B,"Organism, effect (morphology, biofilm and growth disruption) ([12]; E. coli): E. coli (C); Organism, effect (morphology, biofilm and growth disruption) ([12]; P. aeruginosa): P. aeruginosa (C); Organism, effect (morphology, biofilm and growth disruption) ([12]; S. mutans): S. mutans (D)"
